What was measured:
[1] = target: humanized variant of IPN002 (hu-IPN002); experiment: competition ELISA; competitor: biotin-Tau 15-44 on hu-IPN002
[2] = target: 383 amino acid recombinant tau (UniProt P10636); experiment: solution phase ELISA, biotin-rTau383, A450
[3] = target: 383 amino acid recombinant tau (UniProt P10636); experiment: solid phase ELISA, biotin-rTau383, A450
[4] = target: 383 amino acid recombinant tau (UniProt P10636); experiment: ELISA, solid phase, biotin-rTau383
[5] = target: 383 amino acid recombinant tau (UniProt P10636); experiment: ELISA, solution phase, biotin-rTau383
[6] = target: 383 amino acid recombinant tau (UniProt P10636); experiment: peptide binding ELISA (A450), hu-IPN002 titrated
biotin-phospho Tau 15-24 = experiment: ELISA, serially diluted hu-IPN002 with biotin-Tau 15-24 PHOSPHO
[7] = target: 383 amino acid recombinant tau (UniProt P10636); experiment: peptide binding ELISA (A450), hu-IPN002 titrated; table under the curves
biotin-Tau 15-24 = experiment: ELISA, serially diluted hu-IPN002 with biotin-Tau 15-24
[8] = target: 383 amino acid recombinant tau (UniProt P10636); experiment: ELISA binding assay, A450
[9] = target: 383 amino acid recombinant tau (UniProt P10636); experiment: ELISA, serially diluted hu-IPN002 with biotin-rTau383

Chain of 383 amino acid recombinant tau (P10636 other isoform, or with tags, fused parts or gaps limits assumed): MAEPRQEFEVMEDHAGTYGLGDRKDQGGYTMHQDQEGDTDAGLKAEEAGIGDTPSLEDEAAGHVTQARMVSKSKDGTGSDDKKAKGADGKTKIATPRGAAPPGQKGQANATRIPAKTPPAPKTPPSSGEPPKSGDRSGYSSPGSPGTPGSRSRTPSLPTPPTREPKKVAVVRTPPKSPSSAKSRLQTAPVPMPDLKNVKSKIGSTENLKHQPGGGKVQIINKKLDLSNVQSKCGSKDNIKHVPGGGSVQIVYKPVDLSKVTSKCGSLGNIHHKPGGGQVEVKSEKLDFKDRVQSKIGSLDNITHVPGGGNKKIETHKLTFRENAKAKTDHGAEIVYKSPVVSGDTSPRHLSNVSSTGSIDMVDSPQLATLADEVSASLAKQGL
Chain of Peptide 2 (Tau amino acids 15-44) (peptide): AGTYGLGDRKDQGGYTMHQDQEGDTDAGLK

IC50 (read off the curve) [1] [nM]	EC50 (read off the curve) [2] [pM]	EC50 (read off the curve) [3] [pM]	Kd [4] [nM]	Kd [5] [nM]	EC50 (read off the curve) [6] [pM]	Kd (biotin-phospho Tau 15-24) [nM]	Kd [7] [nM]	Kd (biotin-Tau 15-24) [nM]	EC50 (read off the curve) [8] [pM]	Kd [8] [nM]	Kd [9] [nM]	Substance
100												Peptide 2 (Tau amino acids 15-44)
	100	100	0.107	0.114	300	0.768	0.288	0.754	300	0.288	0.283	humanized variant of IPN002 (hu-IPN002) (antibody)

From US20160122421A1
